According to US20260258124A1 (CIMEIO THERAPEUTICS, published 2026):

biological target: T1, CD117 on wild-type cells (TF-1 cells, HSPCs, HSCs) (human, UniProt P10721 26-976); assay: cell-based or functional assay
T1 sequence (P10721 26-976 limits assumed): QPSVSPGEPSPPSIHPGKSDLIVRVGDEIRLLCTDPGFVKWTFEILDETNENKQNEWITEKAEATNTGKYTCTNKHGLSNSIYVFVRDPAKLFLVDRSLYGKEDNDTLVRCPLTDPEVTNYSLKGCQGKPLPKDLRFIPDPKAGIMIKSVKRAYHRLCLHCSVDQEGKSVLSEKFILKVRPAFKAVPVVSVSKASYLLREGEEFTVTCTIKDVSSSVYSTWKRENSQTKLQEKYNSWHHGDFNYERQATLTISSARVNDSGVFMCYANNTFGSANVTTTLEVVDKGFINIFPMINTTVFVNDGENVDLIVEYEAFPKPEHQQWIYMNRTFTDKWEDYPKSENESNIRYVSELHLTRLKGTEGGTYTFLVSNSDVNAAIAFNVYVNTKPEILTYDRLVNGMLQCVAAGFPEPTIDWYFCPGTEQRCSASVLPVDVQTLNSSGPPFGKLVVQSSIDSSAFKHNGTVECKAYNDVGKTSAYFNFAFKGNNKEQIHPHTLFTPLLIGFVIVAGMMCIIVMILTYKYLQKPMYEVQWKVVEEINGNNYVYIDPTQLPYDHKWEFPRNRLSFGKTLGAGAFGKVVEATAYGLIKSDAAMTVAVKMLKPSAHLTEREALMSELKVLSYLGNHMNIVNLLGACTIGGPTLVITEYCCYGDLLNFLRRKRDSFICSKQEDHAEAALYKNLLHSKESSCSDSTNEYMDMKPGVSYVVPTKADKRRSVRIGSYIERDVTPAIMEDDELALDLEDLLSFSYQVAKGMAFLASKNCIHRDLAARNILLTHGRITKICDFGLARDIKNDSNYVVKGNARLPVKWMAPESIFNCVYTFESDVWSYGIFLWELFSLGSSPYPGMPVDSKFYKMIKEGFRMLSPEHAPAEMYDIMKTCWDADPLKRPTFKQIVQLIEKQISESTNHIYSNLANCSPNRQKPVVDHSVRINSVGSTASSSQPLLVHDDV

Row | Binder | IC50, inhibition of SCF-dependent proliferation of TF-1 cells (CellTiter-Glo), Average | IC50, inhibition of SCF-dependent proliferation of TF-1 cells (CellTiter-Glo), Experiment #1 | IC50, inhibition of SCF-dependent proliferation of TF-1 cells (CellTiter-Glo), Experiment #2
1 | FSI-174 (antibody, human IgG1, V domains shown) VH: QVQLVQSGAEVKKPGASVKVSCKASGYTFTSYNMHWVRQAPGQGLEWMGVIYSGNGDTSYAQKFQGRVTITADKSTSTAYMELSSLRSEDTAVYYCARERDTRFGNWGQGTLVTVSS VL: DIVMTQSPLSLPVTPGEPASISCRASESVDIYGQSFMHWYLQKPGQSPQLLIYLASNLESGVPDRFSGSGSGTDFTLKISRVEAEDVGVYYCQQNNEDPYTFGGGTKVEIK | 0.0473 µg/mL | 0.0387 µg/mL | 0.056 µg/mL
2 | AMG191 (antibody, human IgG1, V domains shown) VH: QVQLVQSGAEVKKPGASVKVSCKASGYTFTSYNMHWVRQAPGQGLEWMGVIYSGNGDTSYNQKFKGRVTITADKSTSTAYMELSSLRSEDTAVYYCARERDTRFGNWGQGTLVTVSS VL: DIVMTQSPDSLAVSLGERATINCRASESVDIYGNSFMHWYQQKPGQPPKLLIYLASNLESGVPDRFSGSGSGTDFTLTISSLQAEDVAVYYCQQNNEDPYTFGGGTKVEIKR | 0.208 µg/mL | 0.093 µg/mL | 0.323 µg/mL

biological target: T1, CD117 on wild-type cells (TF-1 cells, …); assay: cell-based or functional assay; remark: another data set of the same source

Row | Binder | IC50, inhibition of SCF-dependent proliferation of CD34-positive HSPCs (CellTiter-Glo)
3 | FSI-174 (antibody, human IgG1, V domains shown) VH: QVQLVQSGAEVKKPGASVKVSCKASGYTFTSYNMHWVRQAPGQGLEWMGVIYSGNGDTSYAQKFQGRVTITADKSTSTAYMELSSLRSEDTAVYYCARERDTRFGNWGQGTLVTVSS VL: DIVMTQSPLSLPVTPGEPASISCRASESVDIYGQSFMHWYLQKPGQSPQLLIYLASNLESGVPDRFSGSGSGTDFTLKISRVEAEDVGVYYCQQNNEDPYTFGGGTKVEIK | 0.0253 µg/mL
4 | AMG191 (antibody, human IgG1, V domains shown) VH: QVQLVQSGAEVKKPGASVKVSCKASGYTFTSYNMHWVRQAPGQGLEWMGVIYSGNGDTSYNQKFKGRVTITADKSTSTAYMELSSLRSEDTAVYYCARERDTRFGNWGQGTLVTVSS VL: DIVMTQSPDSLAVSLGERATINCRASESVDIYGNSFMHWYQQKPGQPPKLLIYLASNLESGVPDRFSGSGSGTDFTLTISSLQAEDVAVYYCQQNNEDPYTFGGGTKVEIKR | 0.0954 µg/mL

biological target: T2, human recombinant CD117 (c-Kit) from Sino Biological (Catalog No. 11996-H08H) (human, UniProt P10721 26-524); assay: BLI Octet, set-up as in Example 2
T2 construct: also called soluble antigen
Experimental: In the main experiment kinetic assays were performed by first capturing IgG using anti-human Fc biosensors. The mAb capture biosensors were then submerged in wells containing different concentrations of antigen (association stage) followed by a dissociation step in running buffer. To allow for double reference correction, IgG-captured sensors were dipped into wells containing only buffer and blank sensors were also dipped into wells containing the antigen. This referencing provided a means of compensating for both the natural dissociation of the capture IgG and non-specific binding of the antigen to the sensor surface. Steps were performed at 25° C. at a constant shaking of 1000 rpm. New sensors were used for each sample. Dissociation rate constants (Kd) were calculated using the ForteBio Data Analysis software. All consumables used were those recommended by ForteBio.
All samples were diluted in freshly prepared running buffer. Antibody variants were immobilized onto the surface of a series of biosensors using the capture methods described. Antigen was passed over the surface to generate a binding response. Binding data for the IgG:antigen interactions were collected at 25° C. on the biosensors. A dilution series of the antigen was used in the association step, in order to fit results globally and get the best values for ka, kd, and KD. The response data for the binding of antigen to the surface immobilized IgG were fitted to a 1:1 binding model. HC0 LC0 refers to murine SR-1.

T2 sequence (P10721 26-524 limits assumed): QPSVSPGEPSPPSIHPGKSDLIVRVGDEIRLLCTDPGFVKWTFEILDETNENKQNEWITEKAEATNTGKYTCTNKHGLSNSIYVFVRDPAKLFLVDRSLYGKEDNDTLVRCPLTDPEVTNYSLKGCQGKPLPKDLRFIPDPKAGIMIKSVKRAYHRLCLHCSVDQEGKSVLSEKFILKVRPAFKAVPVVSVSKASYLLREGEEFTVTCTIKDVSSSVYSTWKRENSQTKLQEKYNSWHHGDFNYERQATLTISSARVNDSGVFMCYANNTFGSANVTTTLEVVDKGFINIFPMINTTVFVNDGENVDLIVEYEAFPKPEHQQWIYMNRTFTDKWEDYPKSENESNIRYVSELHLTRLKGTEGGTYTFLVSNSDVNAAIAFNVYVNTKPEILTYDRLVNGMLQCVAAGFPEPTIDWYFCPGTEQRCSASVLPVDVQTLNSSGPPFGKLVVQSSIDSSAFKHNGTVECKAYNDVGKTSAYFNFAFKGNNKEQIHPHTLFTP

Row | Binder | Kd
5 | Castor (antibody, V domains shown, IgG; also called VH1/VL1.11) VH: QVQLVQSGAEVKKPGASVKVSCKASGYTFTSYNMHWVRQAPGQGLEWMGVIYSGNGDTSYNQKFKGRVTMTTDTSTSTAYMELRSLTSDDTAVYYCARERDTRFGNWGQGTLVTVSA VL: EIVLTQSPSSLSASVGDRVTITCRASESVDIYGNSFMHWYQQKPGKAPKLLIYLASNLESGVPSRFSGSGSGTDFTLTISSLQPEDFATYYCQQENEDPYTFGQGTKLEIKR | 2.2 nM
6 | Breithorn (antibody, V domains shown, IgG; also called VH1/VL1.15; VH1/LC1.15) VH: QVQLVQSGAEVKKPGASVKVSCKASGYTFTSYNMHWVRQAPGQGLEWMGVIYSGNGDTSYNQKFKGRVTMTTDTSTSTAYMELRSLTSDDTAVYYCARERDTRFGNWGQGTLVTVSA VL: EIVLTQSPSSLSASVGDRVTITCRASESVDIYGNSFMHWYQQKPGKAPKLLIYLASNLESGVPSRFSGSGSGTDFTLTISSLQPEDFATYYCQQNNEEPYTFGQGTKLEIKR | 0.4 nM
7 | Nadelhorn (antibody, V domains shown, IgG; also called VH1/VL1.8) VH: QVQLVQSGAEVKKPGASVKVSCKASGYTFTSYNMHWVRQAPGQGLEWMGVIYSGNGDTSYNQKFKGRVTMTTDTSTSTAYMELRSLTSDDTAVYYCARERDTRFGNWGQGTLVTVSA VL: EIVLTQSPSSLSASVGDRVTITCRASESVDIYGYSFMHWYQQKPGKAPKLLIYLASNLESGVPSRFSGSGSGTDFTLTISSLQPEDFATYYCQQNNEDPYTFGQGTKLEIKR | 0.2 nM
8 | Alphubel (antibody, V domains shown, IgG; also called VH1/VL1.13) VH: QVQLVQSGAEVKKPGASVKVSCKASGYTFTSYNMHWVRQAPGQGLEWMGVIYSGNGDTSYNQKFKGRVTMTTDTSTSTAYMELRSLTSDDTAVYYCARERDTRFGNWGQGTLVTVSA VL: EIVLTQSPSSLSASVGDRVTITCRASESVDIYGNSFMHWYQQKPGKAPKLLIYLASNLESGVPSRFSGSGSGTDFTLTISSLQPEDFATYYCQQNKEDPYTFGQGTKLEIKR | 1.4 nM
9 | Ludwigshöhe (antibody, V domains shown, IgG; also called VH1/VL1.7) VH: QVQLVQSGAEVKKPGASVKVSCKASGYTFTSYNMHWVRQAPGQGLEWMGVIYSGNGDTSYNQKFKGRVTMTTDTSTSTAYMELRSLTSDDTAVYYCARERDTRFGNWGQGTLVTVSA VL: EIVLTQSPSSLSASVGDRVTITCRASESVDIYGESFMHWYQQKPGKAPKLLIYLASNLESGVPSRFSGSGSGTDFTLTISSLQPEDFATYYCQQNNEDPYTFGQGTKLEIKR | 0.2 nM
10 | Finsteraarhor (antibody, V domains shown, IgG; also called VH1/VL1.10; VH1/LC1.10) VH: QVQLVQSGAEVKKPGASVKVSCKASGYTFTSYNMHWVRQAPGQGLEWMGVIYSGNGDTSYNQKFKGRVTMTTDTSTSTAYMELRSLTSDDTAVYYCARERDTRFGNWGQGTLVTVSA VL: EIVLTQSPSSLSASVGDRVTITCRASESVDIYGNSFMHWYQQKPGKAPKLLIYLASNLESGVPSRFSGSGSGTDFTLTISSLQPEDFATYYCQQRNEDPYTFGQGTKLEIKR | 4 nM
11 | Parrot (antibody, V domains shown, IgG; also called VH1/VL1.5) VH: QVQLVQSGAEVKKPGASVKVSCKASGYTFTSYNMHWVRQAPGQGLEWMGVIYSGNGDTSYNQKFKGRVTMTTDTSTSTAYMELRSLTSDDTAVYYCARERDTRFGNWGQGTLVTVSA VL: EIVLTQSPSSLSASVGDRVTITCRASESVDIYGKSFMHWYQQKPGKAPKLLIYLASNLESGVPSRFSGSGSGTDFTLTISSLQPEDFATYYCQQNNEDPYTFGQGTKLEIKR | 3.7 nM
12 | Lagginhorn (antibody, V domains shown, IgG; also called VH1.2/VL1.17) VH: QVQLVQSGAEVKKPGASVKVSCKASGYTFTSYNMHWVRQAPGQGLEWMGVIYSGSGDTSYNQKFKGRVTMTTDTSTSTAYMELRSLTSDDTAVYYCARERDTRFGNWGQGTLVTVSA VL: EIVLTQSPSSLSASVGDRVTITCRASESVDIYGESFMHWYQQKPGKAPKLLIYLASNLESGVPSRFSGSGSGTDFTLTISSLQPEDFATYYCQQNNEEPYTFGQGTKLEIKR | 0.44 nM
13 | Dirruhorn (antibody, V domains shown, IgG; also called VH1/VL1.18; VH1/VH1.18) VH: QVQLVQSGAEVKKPGASVKVSCKASGYTFTSYNMHWVRQAPGQGLEWMGVIYSGNGDTSYNQKFKGRVTMTTDTSTSTAYMELRSLTSDDTAVYYCARERDTRFGNWGQGTLVTVSA VL: EIVLTQSPSSLSASVGDRVTITCRASESVDIYGYSFMHWYQQKPGKAPKLLIYLASNLESGVPSRFSGSGSGTDFTLTISSLQPEDFATYYCQQNKEEPYTFGQGTKLEIKR | 0.56 nM
14 | Zinalrithorn (antibody, V domains shown, IgG; also called VH1/VL1.12) VH: QVQLVQSGAEVKKPGASVKVSCKASGYTFTSYNMHWVRQAPGQGLEWMGVIYSGNGDTSYNQKFKGRVTMTTDTSTSTAYMELRSLTSDDTAVYYCARERDTRFGNWGQGTLVTVSA VL: EIVLTQSPSSLSASVGDRVTITCRASESVDIYGNSFMHWYQQKPGKAPKLLIYLASNLESGVPSRFSGSGSGTDFTLTISSLQPEDFATYYCQQHNEDPYTFGQGTKLEIKR | 1.3 nM
15 | Weissmies (antibody, V domains shown, IgG; also called VH1.2/VL1.16) VH: QVQLVQSGAEVKKPGASVKVSCKASGYTFTSYNMHWVRQAPGQGLEWMGVIYSGSGDTSYNQKFKGRVTMTTDTSTSTAYMELRSLTSDDTAVYYCARERDTRFGNWGQGTLVTVSA VL: EIVLTQSPSSLSASVGDRVTITCRASESVDIYGYSFMHWYQQKPGKAPKLLIYLASNLESGVPSRFSGSGSGTDFTLTISSLQPEDFATYYCQQNNEEPYTFGQGTKLEIKR | 0.37 nM
16 | Schreckhorn (antibody, V domains shown, IgG; also called VH1/VL1.16) VH: QVQLVQSGAEVKKPGASVKVSCKASGYTFTSYNMHWVRQAPGQGLEWMGVIYSGNGDTSYNQKFKGRVTMTTDTSTSTAYMELRSLTSDDTAVYYCARERDTRFGNWGQGTLVTVSA VL: EIVLTQSPSSLSASVGDRVTITCRASESVDIYGYSFMHWYQQKPGKAPKLLIYLASNLESGVPSRFSGSGSGTDFTLTISSLQPEDFATYYCQQNNEEPYTFGQGTKLEIKR | 0.13 nM
17 | Täschhorn (antibody, V domains shown, IgG; also called VH1/VL1.3) VH: QVQLVQSGAEVKKPGASVKVSCKASGYTFTSYNMHWVRQAPGQGLEWMGVIYSGNGDTSYNQKFKGRVTMTTDTSTSTAYMELRSLTSDDTAVYYCARERDTRFGNWGQGTLVTVSA VL: EIVLTQSPSSLSASVGDRVTITCRASESVDIYGRSFMHWYQQKPGKAPKLLIYLASNLESGVPSRFSGSGSGTDFTLTISSLQPEDFATYYCQQNNEDPYTFGQGTKLEIKR | 3.5 nM
18 | Weisshorn (antibody, V domains shown, IgG; also called VH1/VL1.2; VH1/LC1.2) VH: QVQLVQSGAEVKKPGASVKVSCKASGYTFTSYNMHWVRQAPGQGLEWMGVIYSGNGDTSYNQKFKGRVTMTTDTSTSTAYMELRSLTSDDTAVYYCARERDTRFGNWGQGTLVTVSA VL: EIVLTQSPSSLSASVGDRVTITCRASESVDIYGQSFMHWYQQKPGKAPKLLIYLASNLESGVPSRFSGSGSGTDFTLTISSLQPEDFATYYCQQNNEDPYTFGQGTKLEIKR | 0.3 nM
19 | Dent Blanche (antibody, V domains shown, IgG; also called VH1/VL1.6) VH: QVQLVQSGAEVKKPGASVKVSCKASGYTFTSYNMHWVRQAPGQGLEWMGVIYSGNGDTSYNQKFKGRVTMTTDTSTSTAYMELRSLTSDDTAVYYCARERDTRFGNWGQGTLVTVSA VL: EIVLTQSPSSLSASVGDRVTITCRASESVDIYGFSFMHWYQQKPGKAPKLLIYLASNLESGVPSRFSGSGSGTDFTLTISSLQPEDFATYYCQQNNEDPYTFGQGTKLEIKR | 1.2 nM
20 | Grand Combin (antibody, V domains shown, IgG; also called VH1/VL1.9) VH: QVQLVQSGAEVKKPGASVKVSCKASGYTFTSYNMHWVRQAPGQGLEWMGVIYSGNGDTSYNQKFKGRVTMTTDTSTSTAYMELRSLTSDDTAVYYCARERDTRFGNWGQGTLVTVSA VL: EIVLTQSPSSLSASVGDRVTITCRASESVDIYGNSFMHWYQQKPGKAPKLLIYLASNLESGVPSRFSGSGSGTDFTLTISSLQPEDFATYYCQQGNEDPYTFGQGTKLEIKR | 1.3 nM
